Paper PMC9452514, “Coiled-coil structure of meiosis protein TEX12 and conformational regulation by its C-terminal tip” (Communications Biology, 2022)

How the values were obtained:
[1] = molecular target: the molecule itself; assay: SEC-SAXS; Superdex 200 Increase 10/300 GL, 20 mM Tris pH 8.0, 150 mM KCl; ΔCtip and LFIL analysed at ~30 mg/ml to minimise dissociation
[2] = molecular target: the molecule itself; assay: SEC-MALS; Superdex 200 Increase 10/300 GL, 20 mM Tris pH 8.0, 150 mM KCl, 2 mM DTT; ΔCtip and LFIL loaded at 1 mg/ml after stepwise dilution
[3] = molecular target: the molecule itself; assay: SEC-MALS; Superdex 200 Increase 10/300 GL, 20 mM Tris pH 8.0, 150 mM KCl, 2 mM DTT; wild-type and FFV at >10 mg/ml and at 1 mg/ml; species stable across 1-10 mg/ml
[4] = molecular target: the molecule itself; assay: SEC-SAXS; Superdex 200 Increase 10/300 GL, 20 mM Tris pH 8.0, 150 mM KCl; samples at >5 mg/ml; beamline B21, Diamond Light Source
[5] = molecular target: the molecule itself; assay: crystal structure; TEX12 FFV at 43 mg/ml, sitting drops, 200 mM calcium acetate, 40% MPD, 20 °C; C222_(1), 1.45 Å, two chains per asymmetric unit

Protein	stoichiometry N [1]	stoichiometry N [2]	stoichiometry N [3]	stoichiometry N [4]	stoichiometry N [5]
TEX12 ΔCtip (amino-acids 49–113) (domain or fragment, human, UniProt Q9BXU0 49-113, looked up, TEX12, human, core without the C-terminal tip (deletion of amino-acids 114-123), amino-acids 49-113; Tetramer in the crystal (6HK8); in solution tetramers in concentration-dependent equilibrium with dimers; also called TEX12 ΔCtip (49–113); source: E. coli BL21 (DE3), purified (Ni-NTA, amylose, HiTrap Q HP, TEV cleavage, SEC); not shown: His, N-terminal, cleaved; MBP, N-terminal, cleaved) KDEALEKDLNDVSKEINLMLSTYAKLLSERAAVDASYIDEIDELFKEANAIENFLIQKREFLRQR	4	2			
TEX12 core (amino-acids 49–123) wild-type (domain or fragment, human, UniProt Q9BXU0 49-123, looked up, TEX12, human, structural core, amino-acids 49-123; expressed from pMAT11 as a TEV-cleavable His-MBP fusion; also called TEX12 wild-type; WT; source: E. coli BL21 (DE3), purified (Ni-NTA, amylose, HiTrap Q HP, TEV cleavage, SEC); not shown: His, N-terminal, cleaved; MBP, N-terminal, cleaved) KDEALEKDLNDVSKEINLMLSTYAKLLSERAAVDASYIDEIDELFKEANAIENFLIQKREFLRQRFTVIANTLHR			2		
TEX12 core (amino-acids 49–123) L110E F114E I117E L121E (LFIL) (domain or fragment, human, UniProt Q9BXU0 49-123, looked up, TEX12, human, structural core, amino-acids 49-123, with glutamate mutations of the Ctip heptad amino-acids; In solution tetramers in concentration-dependent equilibrium with dimers; also called TEX12 LFIL; source: E. coli BL21 (DE3), purified (Ni-NTA, amylose, HiTrap Q HP, TEV cleavage, SEC); not shown: His, N-terminal, cleaved; MBP, N-terminal, cleaved) KDEALEKDLNDVSKEINLMLSTYAKLLSERAAVDASYIDEIDELFKEANAIENFLIQKREFERQRETVEANTEHR	4	2			
TEX12 core (amino-acids 49–123) F102A F109E V116A (FFV) (domain or fragment, human, UniProt Q9BXU0 49-123, looked up, TEX12, human, structural core, amino-acids 49-123, with mutations of solvent-exposed residues; both crystal forms (6HK9, 6R2F) show dimers; The introduction gives the FFV of the earlier work as F102A F109A V116A; also called TEX12 FFV; TEX12 (49–123) FFV; source: E. coli BL21 (DE3), purified (Ni-NTA, amylose, HiTrap Q HP, TEV cleavage, SEC); not shown: His, N-terminal, cleaved; MBP, N-terminal, …) KDEALEKDLNDVSKEINLMLSTYAKLLSERAAVDASYIDEIDELFKEANAIENALIQKREELRQRFTAIANTLHR				4	2
